Results taken from US20110064742 (published 2011).
Bridge positions count the residues as written; N and C are the ends. Square brackets hold non-standard residues; d marks the D form. Phe(4-Cl) = N[C@@H](Cc1ccc(Cl)cc1)C(=O)O; dPhe(4-Cl) = N[C@H](Cc1ccc(Cl)cc1)C(=O)O; Phe(4-F) = N[C@@H](Cc1ccc(F)cc1)C(=O)O; 2Nal = N[C@@H](Cc1ccc2ccccc2c1)C(=O)O; 3Pal = N[C@@H](Cc1cccnc1)C(=O)O

B1: PRL-2915 (peptide)
chain: H-[Phe(4-Cl)]C[3Pal][dW]KIC[2Nal]-NH2
modifications: disulfide 2-7
SMILES: CC[C@H](C)[C@@H]1NC(=O)[C@H](CCCCN)NC(=O)[C@@H](Cc2c[nH]c3ccccc23)NC(=O)[C@H](Cc2cccnc2)NC(=O)[C@@H](NC(=O)[C@@H](N)Cc2ccc(Cl)cc2)CSSC[C@@H](C(=O)N[C@@H](Cc2ccc3ccccc3c2)C(N)=O)NC1=O
B2: BIM 23,458 (peptide)
chain: H-[Phe(4-F)][dC][3Pal][dW]KIC[2Nal]-NH2
modifications: disulfide 2-7
SMILES: CC[C@H](C)[C@@H]1NC(=O)[C@H](CCCCN)NC(=O)[C@@H](Cc2c[nH]c3ccccc23)NC(=O)[C@H](Cc2cccnc2)NC(=O)[C@H](NC(=O)[C@@H](N)Cc2ccc(F)cc2)CSSC[C@@H](C(=O)N[C@@H](Cc2ccc3ccccc3c2)C(N)=O)NC1=O
B3: BIM 23,627 (peptide)
chain: H-[dPhe(4-Cl)][dC][3Pal]WKVC[2Nal]-NH2
modifications: disulfide 2-7
SMILES: CC(C)[C@@H]1NC(=O)[C@H](CCCCN)NC(=O)[C@H](Cc2c[nH]c3ccccc23)NC(=O)[C@H](Cc2cccnc2)NC(=O)[C@H](NC(=O)[C@H](N)Cc2ccc(Cl)cc2)CSSC[C@@H](C(=O)N[C@@H](Cc2ccc3ccccc3c2)C(N)=O)NC1=O

target: SSTR-2 (human)
Sequence (chain, as listed by the source): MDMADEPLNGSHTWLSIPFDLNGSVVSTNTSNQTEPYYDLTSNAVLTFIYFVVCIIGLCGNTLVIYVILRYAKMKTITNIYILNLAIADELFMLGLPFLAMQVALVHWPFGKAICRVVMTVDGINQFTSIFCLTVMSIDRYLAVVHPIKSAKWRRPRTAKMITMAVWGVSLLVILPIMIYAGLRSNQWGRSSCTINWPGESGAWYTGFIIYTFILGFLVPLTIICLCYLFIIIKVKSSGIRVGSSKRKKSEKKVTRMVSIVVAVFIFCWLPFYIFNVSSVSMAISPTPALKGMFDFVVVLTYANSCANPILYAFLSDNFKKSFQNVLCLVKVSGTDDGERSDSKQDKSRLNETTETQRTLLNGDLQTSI

| Ki | Binder |
| --- | --- |
| 12.6 nM | B1 |
| 158 nM | Ac-HFIRWF-NH2 [AC-178,335] |
| 25.1 nM | XCYWKTCX (cyclic disulfide; H-Cpa-cyclo[DCys-Tyr-DTrp-Lys-Thr-Cys]-Nal-NH2) [PRL-2970] |

target: SSTR-2 (human); remark: another data set of the same source

| IC50 | Binder |
| --- | --- |
| 31.6 nM | H-[Phe(4-Cl)]C[3Pal]WKVC[2Nal]-NH2 (cysteine pairing not given here) [BIM 23,454] |
| 27.4 nM | B2 |
| 6.4 nM | B3 |
